{
  "source": "a protein production outcome set (Wang et al. 2014)",
  "data": [
    {"assay": "label from the status in PepcDB records", "values": [
      {"sequence": "MPAKQPTPKQEPATKAGRCLARSFMKTLIKDCSVSAIVAGSIATTISYAGPLVIIFHAAEAAGLSHQQLSSWVWAVSMGSALLGALLSLRYRVPVVIAWSIPGSALLVTALPQLGLEQAVGAYLVANLVLLLIGISGAFDRIIARLPGSIAAGMQAGILFSFGIEVFRALPVQPLLVLAMFVTYVLMRRVQPRYAVAAVLGVGMLVTVASGTLRSEALVLELASPQWITPQFSLSAVFSLALPMVLVALTGQFMPGMAVLRNAGYPTPASPLISASALIGVLLAPFGCHGLNLAAVTASLCTGHEAHENPQRRYVAAVAGSVLYLLLGIAGATLMSLFAAFPAVLIAALAGLALYGAISEALVRSLAEPAERDAGLFTFLVTASGVAFLGLSAAFWGLLFGLLAHALLRLRQPRAREVLRRTP", "protein production": "not failed"},
      {"sequence": "MPALCSTVQTLEKLAKDDVSSLALLGRSVMHDNALTSRILRVANSAIYHKGSTQISTVSRAAIVLGFDAVRNICITAQLLSSLLESKNLAPSVYQRLIKLMAKAFQAAMLTRMMLSDYDDDIQEEAFIACLLFHIGESAFWSIGGEFTETLDSQLTECETSADERSLIRETIGTSFSQLTQSIARHWGLGELLIQAVNYPDDPRPEIRSIFLADKLCDTLSVATPDKNDLEKYINQAANFTGLDETEFTLKMQRCTKATHKLAEAYGAKVLIDYLPDPQRIDKLEPYLPEAELPIFEANLNVQLVKLRELTAFAINKADFNQIMQTVLEGILEGVGVDRCGVLLLSPSRKQLQPRIMLGRDAEEMKRQFIIELGDRKGLFPMAMEHKESLWVDSPCAKKWQEQCRELKVQLPESGFLVAPLLVDNKVIGFYYADRGPSERCFAEVDFQAFIHFSQLANVCFTVSLK", "protein production": "failed"},
      {"sequence": "MPALDLIRPSVTAMRVIASVNADFARELKLPPHIRSLGLISADSDDVTYIAADEATKQAMVEVVYGRSLYAGAAHGPSPTAGEVLIMLGGPNPAEVRAGLDAMIAHIENGAAFQWANDAQDTAFLAHVVSRTGSYLSSTAGITLGDPMAYLVAPPLEATYGIDAALKSADVQLATYVPPPSETNYSAAFLTGSQAACKAACNAFTDAVLEIARNPIQRA", "protein production": "failed"},
      {"sequence": "MPANPRQDLDRYRAKRDFARTPEPQGRSEAPRPEAESLSFVVQKHAASRLHWDFRLEWNGVLLSWAVTRGPSPDPSARRLAVRTEDHPLDYAEFEGTIPKGEYGGGTVMLWDRGTWEPQGDFAEGLRTGQLKIRLAGERMRGRWTLVRMKPRPREKAENWLLIKEHDTHESEQTEELVERHMTSVATGRTMEQIAAGKAPPRRTRQAALPAFRPLQLARLVSAAPEGEDWIHETKFDGYRCLAALAGGRARLYTRSGLDWTAKFGALVEDVEALEAQEALIDGEVIAPGREGGSFSELQARLKSGGQLLFMTFDLLLLDGEDLTGQPLLARKERLKTLIGKGRGAVRFSGHIRGHGPEVHERICAAGLEGIVSKRASAPYAGSRNGDWLKVKCAHRQEFVICGWNASDKPGRPFASLVMGSYEKSRLVYRGSVGSGFGAPLFRELKPLLAERAQSACPFDRTPAEAKGAHWLKPELVAEVSFTELTAEGHIRHGVFAGLRSDKDAREVRLEEPAPETPAPRKSGVRKKGTKTARPDAPSPDEPAPEPARKPRTARGEKKETTMARPDDLRVAGIRISHPDRRIYDRPAVTKREVAEHAEALAPRMLRFLKDRPVSLLRCPEGAAAECFFQKHRTRGMPVAMKTVPVETKSGPEDFITLPDVAALVGATQMGTLEFHIWGSRNRSLQRPDRLVFDLDPDEGLDFAHVRTAAAELRGLLTDLGLPSVPMLSGGKGVHVIVPLKPKAEWESVKLFSRALATHLAQEAPDRYTATMAKAGRKGRIFIDWLRNDRGSTAIAPYSLRARPGAPVATPVDWDELASARSGGDWTIRSIRDRLDRPCPLAEASARPATLGRTVIGRLERLVAGGKP", "protein production": "failed"},
      {"sequence": "MPAPLRFSSDKPLLLLIDMQQAVDDPSWGPRNHPQAEQACAGLLQAWRARGLPLIHIRHDSVEPNSTYRPGQPGHAFKPEVEPRPGETVIAKQTNSAFIGTGLEALLRANGWLELVVAGVSTSNSVEATVRMAGNLGFAVCLAEDGCFTFDKTDWHGRRRSADEVHAMSLANLDGEYCRVCGSADILAALGNIAGAA", "protein production": "not failed"},
      {"sequence": "MPAPRFAQASEVPGLAARRIAADILDGVLQKRRMLDDQLEGPAAHPGLKTLSDRDRALMRRLVATILRRLGTLEGLLAKLLDRGVPTDAPRAKSALLIGAAQILWMDVPDHAAVDLSVRLVQSDRRAAKYAGLVNAVLRRCAREGQPLVEELAAGTPDVPQWLLARWSEHYGAETTRAIAHAISHEPSLDLTVKSDPAHWAARLHGEVLPTGTVRTLLQGSVRMLPGFDEGQWWVQDAAAALPARLFGDIAGKSVADLCAAPGGKTAQLAAAGARVTAIDRSPARVARLRENLARLSLKVETGVADAAEWRGDATAEFDAVLIDAPCASTGTIRRHPDVAWLKQESDIGALAAVQNRLLKKAASLLRPGGTLVYCTCSLEPEEGEQAIAALLDAESSMRRQPIDPAEVAGLAEIVTTDGALRTLPCHLPHSDPRLAGLDGFYAARLVKSL", "protein production": "failed"},
      {"sequence": "MPAPTHGCPLPRFSVIVPAYKVQAYLHECLESVLEQSFPDLELIAVDDCSPDACGAIIDEFAARDTRVRPVHLPQNTGLGRARNAALAEATGDYLIFLDADDSLTPGALQAVADRIKETSEPDVLVYDYARTFWSGETVRNREAGQLTEQGPAPFRLDDRPGLLNVLMVVWNKAYRREFVEREGFTFPPGLYEDTPWTYPALMAAETVATLDRVCVHYRQRRRGNILGTTGRGHFDIFGQYDRVFAYLDGHPELAHWRPVLFRRMVDHVATVFTRRGRLPRGSHAEFLRRARAHYRRHRTPGPPARPRFRLRHVLVRLGSHRTYRLLSLASRTRVRTARSATAVLGRLAGVALQAHYRLQRRLPVRADRAVFASHQGQGHGCNPGALEAAFRTLAPHIRTAWIARPEHHHTVPAATRRVRPGSAAYWTALARSKYLVSNADFDRRLRKRPGQIVIQTHAGTPLKRMGLDLQDRPAAARDTDFAQVLRGADQWDYCLSANRHSTLVWERVFPSGFTTLEYGQPRNDRFQQATSADVTRLRESLGIPHGSVAILYAPTYRDYRRSQRHLLDLERVLRQLGPRYVVLTRAHPSYGAPLTRSDGARLIDVSGHPSVESLCLASDALVTDYSSLMFDYANLDRPIVVYADDWEAYEAARGTYFDLRAFPPGAVARTEEELIDIFATGHWRGSRAAQLRAAFRARFCPYDDGRAAERVVRRIVLGEGAREGERNSEGDGGATGLPPVVPLAGRHPVPSAAAALARPPLATVPHPAGPVPVVDSP", "protein production": "failed"},
      {"sequence": "MPAYVFSKESFLKFLEGHLEDDVVVVVSSDVTDFCKKLSESMVGEKEYCFAEFAFPADIFDADEDEIDEMMKYAIVFVEKEKLSEAGRNAIR", "protein production": "not failed"},
      {"sequence": "MPCCSHRRCREDPGTSESQEMEEWALLDISQRKLYKEVMLETFRNLTSVGKSWKDQNIEYEYQNPRRNFRSLIEKKVNEIKDDSHCGETFTQVPDDRLNFQEKKASPEIKSCDSFVCGEVGLGNSSFNMNIRGDIGHKAYEYQEYGPKP", "protein production": "failed"},
      {"sequence": "MPDGPDPSSYGPDESPGPDPEEPSSSETAPARHARTTTASRRGHARERMPVSPDESASTFTFDRVVRFLLGAAAVGSVGWMVWYFAGIVLYLIVGGLLAYLLRPPVDYIQGLGVGRVPAILVAFAVFLGVIVVIVTSVVPFITRQVQDLSQLITIDTAAYVANLIEAQVQGVVPLEQGVLEENVRQAAESLMRGDLVEGQQVAETVSSVVSVFTNIVYAVVIVPFVTFFLLKDELRIRRSLLHLVPNRYFEVTLSILAKVELNIGRYFRALLVQGTAIAVIASTLLWIVGLRGAIAIGIFTGLANTIPYFGPFLGFLAGTLVGIAQTGDVSLVPGVALAMALTQLADNVLLQPLIFSRAAQTHPLVILFVVLAGAQLGGILGMLMAIPLTTTLRVIVEQLLWSLRNYRILRAG", "protein production": "failed"},
      {"sequence": "MPDKFNMQSPPFNRLTAEQQHQLRSALDVAYFRQRDVLIDAQHPVTHLHILIKGTVEERSPDGKEVFAHYANDDLFDVRAMFEELSKHQYMALEDTLSYLLPKSIFLQLYEQNGEFAAYFDNNLAKRQELIEAAAQQKNIAEFILTKVDRSIYHPPFILSPEQPIHSVTQQLKERGIDAALVELHPSDPRLAHNHAHPYAIVTRTNMLHAVMLEGRPLDTPVGEIATFPVLHVDEGDFLFNAMVMMTRQRIKRVMVCLGNQAVGLLSLIQILSAFSTHSHVLTLAIARAASIDELALAANKQRELVESLMSRGVRTRFVMELIAAVNEQIIEKAFELVVPPALHDQCCLVVLGSEGRGEQILKTDQDNALIIQDGLEWHQCQPIMETLTHTLLQLGYPLCPGKVMVNNPKWVRSQSDWKRTLTDWVKAARPEQVMDIAIFADAHAVAGNRALLAPVKAHLQHLMAGQELILAEFTRPALNFSVPLTLFGNVKSSKQGIDIKQGGIFPIVHGVRALSLEHAIDANNTFDRIEALVKKRVLEQETGDNLSEAFKLFLKLRLAQQLGNQHSTNQLDFKQLDRTERDLLRHSLHVVKKFKQWLGYHYQIRD", "protein production": "failed"},
      {"sequence": "MPDKPMQYVISRLIDNRTRTRILAPVSALTVKAAREKATGQLQAWREEHTQPSMSASPRFDVFVEQTWKPMIFEHWKPSTKRSVLPALNRRLLAHFGRYPLHMINHKMVQAWFDEISKTRKGAANRNLDTLQSVFKLALRQGHCLTNPCIGIRQNKRRVLNRFLSVAEMQRLSVALDECEAVGGSIAQCADVLRLLLLTGCRLSEITFLKGEYVRGNELHLPDSKTGAKVLYIGQAAVDILSRYHCKANTELFPMKQGASTSLVQSLWLRLRKQIGVEDVRLHDLRHTFASYAVMDGCSIPMVASLLGHKKVTMTLRYTHVGDDSVEQASEVIGAVFKGIFTQPEPPKPLIPRTNETPMPAVKVKQKRLPERKPTAKPKPKAVKKVKQVKPLQKLPTLTKEELRAIQRFRDSELFDRVKIG", "protein production": "failed"},
      {"sequence": "MPDLPLAPEALDLSPAFLEVAACPACHSRFALDFDSGELVCSSPSCGLAFLVRDGVPDLRLDAARKRETGQGVTAEDTEAFEPTHRHEMRPQ", "protein production": "failed"},
      {"sequence": "MPDNEVDLLFAQLSPEDLIEWSDYLPESFTDRALAQMGERQRQRFELYDQYSENEIGRYTDHQMLVLSDKATVAQAQRFFRRIELDCNDNLFIVDEADKYLGTVRRYDIFKHEPHEPLISLLSEDSRALTANTTLLDAAEAIEHSREIELPVIDDAGELIGRVTLRAATALVREHYEAQLMATAGMDESDDLFAPILKGAQRRAV", "protein production": "not failed"},
      {"sequence": "MPDSPFVSVVVPVYNDPEGVKDTLHALVDQRDAPAFEVRVVDNDSTDETMQVIEAFAADHPEIYCHTETEIQSSYAARNTGIEHAGGDVIVFLDADVVVERTCLRDISRTFEGSDVDYVGCNVQMYNPGETDTFWTKYDLAMGLPVEHYLRRKRFAPTCALAVRREVIEAVGTFDDELVSGGDKEFGNRVSEAGFRMGFAEGIVAKHPARTSLKRNIQKSTRIGKGQVQLWAGYGLAAHPVSYTRYLPPDPQRVRNRRDAQFDLVSIYLAEILLKYVQSATVLYLYLKRLLKRVSGDTT", "protein production": "failed"},
      {"sequence": "MPEFTNNPVAECDTVFSEKDGKKIVDFIIYPAKNGDQWVGTAVEAKSMGFGGELKVLVGFDAEGKIYNYSLLSHAETPGLGSKAADWFKEGNKGSIKGMNPGEQPLTVSKDGGQVDAITASTITSRAFLNAVNAAYGAYKGDGGANGTTGASQKAVQKSETAIVDSVVIKLEHHHHHH", "protein production": "not failed"},
      {"sequence": "MPEIEIAAGSGDNNDALFGKYELGKLLGCGAFAKVFHARDRRTGQSVAVKILNKKKLLTNPALANNIKREISIMRRLSHPNIVKLHEVMATKSKIFFAMEFVKGGELFNKISKHGRLSEDLSRRYFQQLISAVGYCHARGVYHRDLKPENLLIDENGNLKVSDFGLSALTDQIRPDGLLHTLCGTPAYVAPEILSKKGYEGAKVDVWSCGIVLFVLVAGYLPFNDPNVMNMYKKIYKGEYRFPRWMSPDLKRFVSRLLDINPETRITIDEILKDPWFVRGGFKQIKFHDDEIEDQKVESSLEAVKSLNAFDLISYSSGLDLSGLFAGCSNSSGESERFLSEKSPEMLAEEVEGFAREENLRMKKKKEEEYGFEMEGQNGKFGIGICISRLNDLLVVVEARRRGGDGDCYKEMWNGKLRVQLIRVCDQTSSTNAAI", "protein production": "failed"}
    ]}
  ]
}
